# Measurements taken from patent publication US7871610B2, “Antibodies to Tie1 ectodomain” (Dyax Corp., priority 2003, dated 2011).
# Assays:
# [1] = tested on: HUVEC; experiment: Tube formation assay with HUVEC in collagen gel; format: cell-based, human; settings: collagen I gel; E3 active even at 10 ng/ml (tested 1 ng/ml to 10 μg/ml); E3b-IgG1 tested 1 pg/ml to 10 ng/ml
# Method: Human Umbilical vein endothelial cells (HUVEC) were obtained by treating fresh human umbilical cord veins with Trypsin-EDTA (1×) (Gibco/Invitrogen) for 20-25 minutes at 37° C. The cells were cultured in a T-25 flask coated with attachment factor (AF), (Cascade Biologics) in RPMI 1640 medium supplemented with 10% FCS, 0.4% BBE, 1% 1-glutamin, 1% penicillin/streptomycin. Primary cultures were detached with warm Trypsin-EDTA and used when confluent at the second or third passage. The cells were maintained in a proliferative state by culturing them in a split ratio 1:2 at an approximate density of the monolayer of about 60-80%. […]
# After 2 passages HUVECs were seeded in their culture medium (40.10^3/50 μl/well of a 96-well plate) on a collagen gel (50 μl of collagen I 1.5 mg/ml) prepared by mixing 7.5 volumes of 2 mg/ml collagen (Collagen R; Serva, Heidelberg, Germany), 1 volume of 10×MEM, 1.5 volume of NaHCO3 (15.6 mg/ml) and ˜1 volume of NaOH to adjust the pH to 7.4. […] The total length of the tube network on the culture surface was quantified at ×40 magnification by the METAVUE™ Software (Universal Imaging Corporation). Results from triplicate wells were expressed as mean vessel area per field ±SEM (relative units). […]
# Germlined E3 and its parental antibody were evaluated in the tube formation assay in a collagen type-I matrix. […]
# [2] = tested on: bFGF-induced angiogenesis; experiment: […] plug assay, bFGF-induced angiogenesis in NMRI nu/nu mice; format: in vivo, mouse
# Method: The germlined variant of the E3 IgG antibody was evaluated in an in vivo assay for angiogenesis induced by bFGF in […]™ plugs. Growth factor reduced […]™ (BD Biosciences, catalog # 354230) was supplemented with 80 ng/ml of bFGF (R&D Systems, catalog #234-FSE). The A2-SV or an IgG4 E3 antibody (10 μg/ml) or PBS was injected subcutaneously into the abdominal area of NMRI nu/nu mice (150 μl of Matrigel/plug).
# In the first assay, two mice were injected with […]™ supplemented with bFGF and soluble VEGFR-1 (10 μg/ml) as a positive control for an angiogenic inhibitor. At day 7 post-implantation mice were anesthetized and perfused through heart with 4% paraformaldehyde (PFA) in phosphate buffered saline (PBS). […]™ plugs and a piece of liver were removed and embedded in paraffin. Sections were cut and stained with hematoxylin and eosin (H&E).
# In a second assay, mice were treated as described above, and then anesthetized eight days post-implantation and injected with fluorescein-conjugated tomato (lycopersicon esculentum) lectin (100 μg in 200 μl of PBS; Vector, catalog #FL-1171) into the tail vein. After five min circulation the animals were perfused through the heart with 10 ml of PBS followed by 10 ml of 4% PFA in PBS. […]™ plugs and pieces of kidney and liver were removed and frozen in OCT (Tissue-Tek). Nuclei were visualized on sections by using […]® mounting medium containing DAPI (Vector) and analyzed under fluorescence microscopy.
molecule,measurement,setting,value
"E3: human anti-Tie1 antibody from Fab phage library; HC SEQ ID NO:114, LC SEQ ID NO:116 (antibody, V domains shown, Synthetically generated peptide) VH: EVQLLESGGGLVQPGGSLRLSCAASGFTFSMYGMVWVRQAPGKGLEWVSVISPSGGNTGYADSVKGRFTISRDNSKNTLYLQVNSLRAEDTAVYYCARAPRGYSYGYYYWGQGTLVTVSSASTKGPSVFPLAPSSKSTSGG VL: DIQMTQSPLSLSASVGDRVTITCRASQGIGHYLAWYQQKPGKVPKLLIYTASTLQSGVPSRFSGSGSGTDFTLTINSLQPEDVATYYCQQFNSYPHTFGQGTRLDIK",tube formation by HUVECs,[1],potent inhibitor of tube formation
same,bFGF-induced angiogenesis in vivo,[2]; conclusion from the two experiments,can inhibit bFGF-induced angiogenesis in vivo
same,vessel-like structures in MATRIGEL plugs (H&E staining),"[2]; first assay, day 7, bFGF 80 ng/ml, antibody 10 μg/ml in plug, E3 = germlined variant, IgG4",neither modification of the matrix nor organization of the cells
same,fluorescein-lectin staining of MATRIGEL plugs,"[2]; second assay, eight days post-implantation, antibody 10 μg/ml in plug",no staining could be detected
